# Experimental data: patent publication US20240024520A1 (UCB, published 2024)
# Values joined by “and” are separate entries in the source; they are usually repeats but may differ in a detail not shown here. Identical values can stand only once. Like-named read-outs stand apart in the source and are kept apart here.
# T1: ovalbumin (UniProt P01012 2-386)
# T1 sequence (looked up): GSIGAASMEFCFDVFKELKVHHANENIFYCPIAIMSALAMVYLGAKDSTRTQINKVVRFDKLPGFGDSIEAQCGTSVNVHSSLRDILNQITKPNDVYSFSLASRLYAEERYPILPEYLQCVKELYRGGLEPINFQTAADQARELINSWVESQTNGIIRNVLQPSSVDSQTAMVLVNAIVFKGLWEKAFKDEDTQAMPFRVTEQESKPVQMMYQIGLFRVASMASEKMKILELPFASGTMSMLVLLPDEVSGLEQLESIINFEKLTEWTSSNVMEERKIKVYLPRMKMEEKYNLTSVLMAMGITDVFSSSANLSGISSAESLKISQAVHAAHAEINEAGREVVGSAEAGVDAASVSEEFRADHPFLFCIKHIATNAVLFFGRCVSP
# B1: hC3nb1 VHH with C-terminal single-chain Fc tag (VHH, not shown: a dimerising Fc or GST)
# VHH: QVQLVETGGGLVQAGGSLRLSCAASGSIFSLNAMGWFRQAPGKEREFVATINRSGGRTYYADSVKGRFTISRDNGKNMVYLQMHSLKPEDTAIYYCAAGTGWSPQTDNEYNYWGQGTQVTVSS
# notes: also called hC3Nb1 WT
# Experiments:
# ovalbumin = molecular target: T1, ovalbumin; assay: counter screen
# [1] = molecular target: T2, human complement component C3 (human, UniProt P01024 23-667; P01024 672-1663); assay: counter screen
# T2 construct: also called biotinylated C3
# [2] = molecular target: T3, human complement component C5 (human, UniProt P01031 19-673; P01031 678-1676)
# [3] = molecular target: T3, human complement component C5; assay: cell-based or functional assay
# mouse C5 = molecular target: T4, mouse C5 (mouse, UniProt P06684 19-674; P06684 679-1680); assay: SPR single-cycle kinetics
# T4 construct: mature; also called mouse C5 protein
# [4] = molecular target: T3, human complement component C5; assay: SPR single-cycle kinetics
# [5] = molecular target: T3, human complement component C5; remark: listed apart in the source
# [6] = molecular target: T3, human complement component C5; assay: cell-based or functional assay; remark: listed apart in the source
# [7] = molecular target: T3, human complement component C5; assay: cell-based or functional assay; remark: listed apart in the source
# [8] = molecular target: T3, human complement component C5; assay: cell-based or functional assay; remark: listed apart in the source
# [9] = molecular target: T3, human complement component C5; assay: cell-based or functional assay; remark: listed apart in the source
# [10] = molecular target: T2, human complement component C3; assay: cell-based or functional assay
# [11] = molecular target: T3, human complement component C5; assay: SPR (Biacore), C5
# [12] = molecular target: T2, human complement component C3; assay: SPR (Biacore), C3, mean of n=3
# [13] = molecular target: T2, human complement component C3; assay: cell-based or functional assay; remark: listed apart in the source
# [14] = molecular target: T3, human complement component C5; assay: SPR multi-cycle kinetics, human C5 immobilised, mean of n=3
# [15] = molecular target: T3, human complement component C5; assay: cell-based or functional assay; remark: listed apart in the source
# rat C5 = molecular target: T5, rat C5 (Rattus norvegicus (rat), UniProt P08650 19-1681, limits assumed); assay: SPR multi-cycle kinetics, rat C5 immobilised
# T5 construct: also called C5 protein from Rattus norvegicus (rat)
# [16] = molecular target: T3, human complement component C5; assay: cell-based or functional assay; remark: listed apart in the source
# [17] = molecular target: T3, human complement component C5; assay: cell-based or functional assay; remark: listed apart in the source
# T2 sequence (P01024 23-667 limits assumed, chain 1 of 2): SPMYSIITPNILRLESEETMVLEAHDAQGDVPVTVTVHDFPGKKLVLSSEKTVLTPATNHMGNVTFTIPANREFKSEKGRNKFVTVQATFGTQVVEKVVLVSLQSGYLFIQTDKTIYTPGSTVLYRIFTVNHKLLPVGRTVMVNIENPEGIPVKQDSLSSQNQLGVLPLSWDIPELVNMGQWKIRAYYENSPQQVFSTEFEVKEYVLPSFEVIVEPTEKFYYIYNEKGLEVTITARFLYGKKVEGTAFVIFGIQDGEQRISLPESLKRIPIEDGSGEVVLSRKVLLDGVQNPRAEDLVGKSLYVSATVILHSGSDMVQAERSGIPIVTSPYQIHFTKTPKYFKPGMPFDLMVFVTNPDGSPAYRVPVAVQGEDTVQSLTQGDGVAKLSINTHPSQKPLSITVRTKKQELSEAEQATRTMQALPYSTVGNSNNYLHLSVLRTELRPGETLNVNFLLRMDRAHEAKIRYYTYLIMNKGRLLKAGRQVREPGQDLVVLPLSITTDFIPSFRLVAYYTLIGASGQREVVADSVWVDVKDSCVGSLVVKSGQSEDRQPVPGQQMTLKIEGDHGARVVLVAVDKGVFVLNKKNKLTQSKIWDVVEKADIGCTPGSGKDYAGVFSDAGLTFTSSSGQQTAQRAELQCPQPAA
# T2 sequence (P01024 672-1663 limits assumed, chain 2 of 2): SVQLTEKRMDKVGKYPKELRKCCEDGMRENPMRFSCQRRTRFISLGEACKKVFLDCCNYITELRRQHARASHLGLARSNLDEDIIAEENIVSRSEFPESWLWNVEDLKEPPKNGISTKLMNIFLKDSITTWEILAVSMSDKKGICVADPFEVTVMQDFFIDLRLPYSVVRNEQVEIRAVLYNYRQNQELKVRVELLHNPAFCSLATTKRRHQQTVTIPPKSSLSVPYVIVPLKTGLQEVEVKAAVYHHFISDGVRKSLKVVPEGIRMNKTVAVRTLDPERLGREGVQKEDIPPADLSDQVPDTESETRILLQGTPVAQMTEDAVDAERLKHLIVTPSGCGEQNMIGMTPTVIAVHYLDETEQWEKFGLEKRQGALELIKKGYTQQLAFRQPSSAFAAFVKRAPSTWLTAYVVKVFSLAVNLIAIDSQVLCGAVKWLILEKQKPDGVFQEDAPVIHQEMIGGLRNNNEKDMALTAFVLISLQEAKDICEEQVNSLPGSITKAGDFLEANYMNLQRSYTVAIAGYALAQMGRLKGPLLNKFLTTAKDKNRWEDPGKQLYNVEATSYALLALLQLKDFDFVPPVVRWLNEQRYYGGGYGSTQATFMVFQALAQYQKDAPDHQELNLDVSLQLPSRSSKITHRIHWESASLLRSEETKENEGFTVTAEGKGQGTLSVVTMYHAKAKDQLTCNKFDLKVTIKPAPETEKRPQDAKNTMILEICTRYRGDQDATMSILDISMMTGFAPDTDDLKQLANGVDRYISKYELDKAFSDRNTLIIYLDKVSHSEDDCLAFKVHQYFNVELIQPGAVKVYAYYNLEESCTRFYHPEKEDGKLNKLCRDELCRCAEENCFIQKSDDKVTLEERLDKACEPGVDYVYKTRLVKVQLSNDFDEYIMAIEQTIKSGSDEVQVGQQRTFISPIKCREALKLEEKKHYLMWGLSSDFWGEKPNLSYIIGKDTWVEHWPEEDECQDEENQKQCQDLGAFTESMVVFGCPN
# T3 sequence (P01031 19-673 limits assumed, chain 1 of 2): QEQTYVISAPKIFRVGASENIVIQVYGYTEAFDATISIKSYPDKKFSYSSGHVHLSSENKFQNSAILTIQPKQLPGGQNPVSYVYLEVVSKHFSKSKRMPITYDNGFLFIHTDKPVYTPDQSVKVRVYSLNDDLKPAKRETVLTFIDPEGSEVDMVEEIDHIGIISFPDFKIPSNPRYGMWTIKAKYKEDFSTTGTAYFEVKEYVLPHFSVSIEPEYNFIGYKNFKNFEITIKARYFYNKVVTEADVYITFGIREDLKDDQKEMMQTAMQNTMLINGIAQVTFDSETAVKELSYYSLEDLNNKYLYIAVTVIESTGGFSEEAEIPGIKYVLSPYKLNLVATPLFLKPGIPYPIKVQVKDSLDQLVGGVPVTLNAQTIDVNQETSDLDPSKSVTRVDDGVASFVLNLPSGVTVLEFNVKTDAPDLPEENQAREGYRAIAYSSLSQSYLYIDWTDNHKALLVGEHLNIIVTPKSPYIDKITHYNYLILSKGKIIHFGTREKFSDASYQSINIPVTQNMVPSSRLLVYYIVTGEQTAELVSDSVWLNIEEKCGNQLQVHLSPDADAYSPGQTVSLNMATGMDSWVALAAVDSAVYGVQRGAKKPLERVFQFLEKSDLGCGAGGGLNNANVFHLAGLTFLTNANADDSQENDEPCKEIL
# T3 sequence (P01031 678-1676 limits assumed, chain 2 of 2): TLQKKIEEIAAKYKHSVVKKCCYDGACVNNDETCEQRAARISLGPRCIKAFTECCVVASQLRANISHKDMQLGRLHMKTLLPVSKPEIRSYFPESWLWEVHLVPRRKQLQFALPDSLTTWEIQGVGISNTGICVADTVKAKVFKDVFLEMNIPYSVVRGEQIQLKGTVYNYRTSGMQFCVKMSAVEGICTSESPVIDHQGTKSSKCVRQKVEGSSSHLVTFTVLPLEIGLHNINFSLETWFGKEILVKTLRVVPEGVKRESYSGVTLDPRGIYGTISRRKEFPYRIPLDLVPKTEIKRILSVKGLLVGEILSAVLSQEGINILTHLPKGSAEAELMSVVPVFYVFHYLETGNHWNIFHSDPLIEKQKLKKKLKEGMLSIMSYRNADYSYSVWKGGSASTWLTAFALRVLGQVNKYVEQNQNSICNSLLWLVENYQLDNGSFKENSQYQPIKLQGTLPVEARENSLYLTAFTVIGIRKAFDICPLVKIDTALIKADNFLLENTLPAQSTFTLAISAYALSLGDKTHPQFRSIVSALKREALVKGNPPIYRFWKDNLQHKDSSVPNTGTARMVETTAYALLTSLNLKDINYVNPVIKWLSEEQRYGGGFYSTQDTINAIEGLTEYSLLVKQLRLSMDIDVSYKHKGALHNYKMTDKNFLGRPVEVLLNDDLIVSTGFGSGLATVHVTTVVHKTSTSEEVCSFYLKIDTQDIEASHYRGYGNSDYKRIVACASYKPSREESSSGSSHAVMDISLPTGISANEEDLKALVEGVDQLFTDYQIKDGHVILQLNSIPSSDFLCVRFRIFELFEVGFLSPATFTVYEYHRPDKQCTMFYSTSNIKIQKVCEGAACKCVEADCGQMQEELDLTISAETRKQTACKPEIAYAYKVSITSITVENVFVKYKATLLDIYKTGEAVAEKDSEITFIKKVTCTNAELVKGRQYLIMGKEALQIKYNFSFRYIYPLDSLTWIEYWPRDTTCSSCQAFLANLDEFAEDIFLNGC
# T5 sequence (P08650 19-1681 limits assumed): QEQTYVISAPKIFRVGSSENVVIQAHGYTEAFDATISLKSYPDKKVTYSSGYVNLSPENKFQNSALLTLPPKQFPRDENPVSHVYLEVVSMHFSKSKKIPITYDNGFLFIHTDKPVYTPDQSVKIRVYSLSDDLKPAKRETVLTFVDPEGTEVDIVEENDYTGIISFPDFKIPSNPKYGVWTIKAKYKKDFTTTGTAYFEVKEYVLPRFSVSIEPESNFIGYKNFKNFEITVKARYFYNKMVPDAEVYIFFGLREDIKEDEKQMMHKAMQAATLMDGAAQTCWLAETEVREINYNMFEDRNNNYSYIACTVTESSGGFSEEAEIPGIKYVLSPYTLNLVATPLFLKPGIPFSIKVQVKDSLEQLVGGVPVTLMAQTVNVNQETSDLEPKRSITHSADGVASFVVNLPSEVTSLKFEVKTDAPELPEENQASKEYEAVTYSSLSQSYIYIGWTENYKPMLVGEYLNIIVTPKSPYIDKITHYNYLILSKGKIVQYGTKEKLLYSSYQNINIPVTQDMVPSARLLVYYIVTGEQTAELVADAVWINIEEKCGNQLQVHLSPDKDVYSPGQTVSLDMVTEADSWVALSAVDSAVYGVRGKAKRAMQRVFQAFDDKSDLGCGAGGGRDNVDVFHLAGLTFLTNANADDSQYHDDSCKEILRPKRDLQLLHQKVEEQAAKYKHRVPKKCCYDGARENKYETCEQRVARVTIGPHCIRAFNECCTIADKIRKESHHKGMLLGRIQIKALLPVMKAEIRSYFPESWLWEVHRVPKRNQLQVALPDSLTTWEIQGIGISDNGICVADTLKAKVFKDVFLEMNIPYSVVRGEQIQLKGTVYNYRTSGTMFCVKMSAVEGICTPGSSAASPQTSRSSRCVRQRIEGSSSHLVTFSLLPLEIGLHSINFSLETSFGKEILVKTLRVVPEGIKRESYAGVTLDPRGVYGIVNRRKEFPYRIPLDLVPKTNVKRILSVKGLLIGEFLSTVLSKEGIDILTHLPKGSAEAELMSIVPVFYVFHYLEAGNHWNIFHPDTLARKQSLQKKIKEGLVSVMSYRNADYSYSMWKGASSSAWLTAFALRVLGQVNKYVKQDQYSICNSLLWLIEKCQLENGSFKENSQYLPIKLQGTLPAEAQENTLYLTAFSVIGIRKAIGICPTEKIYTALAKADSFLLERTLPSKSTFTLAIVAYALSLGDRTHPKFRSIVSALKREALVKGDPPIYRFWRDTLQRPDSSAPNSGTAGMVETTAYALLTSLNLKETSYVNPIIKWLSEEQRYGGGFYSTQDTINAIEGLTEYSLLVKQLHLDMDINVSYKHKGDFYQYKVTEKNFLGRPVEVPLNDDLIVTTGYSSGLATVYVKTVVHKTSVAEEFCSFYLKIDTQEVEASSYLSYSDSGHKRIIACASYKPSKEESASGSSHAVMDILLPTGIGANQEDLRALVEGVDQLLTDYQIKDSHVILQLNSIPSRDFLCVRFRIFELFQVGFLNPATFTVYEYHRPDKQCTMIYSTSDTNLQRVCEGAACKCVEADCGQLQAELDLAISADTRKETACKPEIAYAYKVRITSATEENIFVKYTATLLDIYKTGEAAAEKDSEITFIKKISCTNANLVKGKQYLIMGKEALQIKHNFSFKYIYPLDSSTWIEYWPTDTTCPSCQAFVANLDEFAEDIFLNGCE
binder,measurement,setting,value
"GSSGCPPGYKSGVDCSPGSECKWGCYAVDGRRYGGYGADSGVENLYFQ (Recombinant, cut out by TEV protease) [K57 knob domain peptide cleaved from the 645 Fab]",binding result,ovalbumin,no binding
same,binding result,[1],no binding
same,IC50,[2],4 nM and 3.2 nM and 3.5 nM and 3.6 nM
same,Ki,[2],1.8 nM
same,"Inhibition of classical pathway mediated C5a release, geomean IC50",[3],4 nM
same,binding result,mouse C5,no binding
same,Kd,[4],< 40 nM
same,Kd,[5],1.4 nM
same,koff,[5],0.000408 s⁻¹
same,kon,[5],298000 M⁻¹ s⁻¹
same,"Inhibition of classical pathway mediated bacterial lysis, geomean IC50",[6],115 nM
same,"Inhibition of alternative pathway mediated C5a release, average Emax",[7],97.8%
same,"Inhibition of alternative pathway mediated C5a release, geomean IC50",[7],26.6 nM
same,"AP mediated bacterial killing assay, IC50",[8],1220 nM
same,"Inhibition of alternative pathway mediated bacterial lysis, average Emax",[9],122%
same,"Inhibition of alternative pathway mediated bacterial lysis, geomean IC50",[9],1020 nM
B1,alternative pathway C5b neoepitope ELISA; IC50 (read off the curve),[10],~100 nM
same,binding result,[11],no binding
same,Kd,[12],0.163 nM
same,classical pathway C5b neoepitope ELISA; IC50 (read off the curve),[13],~10 nM
GCPPGYKSGVDCSPGSECKWGCYAVDGRRYGGYGADSGVGS [K57chemFE knob domain peptide],Kd,[14],2.28 nM
same,koff,[14],0.000579 s⁻¹
same,kon,[14],260000 M⁻¹ s⁻¹
same,classical pathway haemolysis assay; IC50 (read off the curve),[15],~20 nM
same,binding result,rat C5,no binding
same,classical pathway complement ELISA (C5b deposition); IC50 (read off the curve),[16],~20 nM
same,alternative pathway complement ELISA (C5b deposition); IC50 (read off the curve),[17],~90 nM
